{
  "source": "paper PMC8144458",
  "origin": "cited, not measured here",
  "assay_in_all_cases": "NMR",
  "settings_in_all_cases": "HdeA without client protein",
  "key": {"Asp47": {"molecular_target": "Asp47 (UniProt position 68, KDKPEDAVLDV)"}, "Asp51": {"molecular_target": "Asp51 (UniProt position 72, EDAVLDVQGIA)"}, "Glu46": {"molecular_target": "Glu46 (UniProt position 67, NKDKPEDAVLD)"}},
  "data": [
    {"substance": "Acid stress chaperone HdeA (Escherichia coli)", "values": [
      {"measurement": "pKa", "setting": "Asp47", "value": 4.14},
      {"measurement": "pKa", "setting": "Asp51", "value": 3.83},
      {"measurement": "pKa", "setting": "Glu46", "value": 4.07}
    ]}
  ]
}
